Data as given in patent publication US20230038638A1, “COMPLEMENT FACTOR I-RELATED COMPOSITIONS AND METHODS” (published 2023).

Columns and labels:
[1] = target: T1, human C4b (human) (UniProt P0C0L5)
T1 sequence: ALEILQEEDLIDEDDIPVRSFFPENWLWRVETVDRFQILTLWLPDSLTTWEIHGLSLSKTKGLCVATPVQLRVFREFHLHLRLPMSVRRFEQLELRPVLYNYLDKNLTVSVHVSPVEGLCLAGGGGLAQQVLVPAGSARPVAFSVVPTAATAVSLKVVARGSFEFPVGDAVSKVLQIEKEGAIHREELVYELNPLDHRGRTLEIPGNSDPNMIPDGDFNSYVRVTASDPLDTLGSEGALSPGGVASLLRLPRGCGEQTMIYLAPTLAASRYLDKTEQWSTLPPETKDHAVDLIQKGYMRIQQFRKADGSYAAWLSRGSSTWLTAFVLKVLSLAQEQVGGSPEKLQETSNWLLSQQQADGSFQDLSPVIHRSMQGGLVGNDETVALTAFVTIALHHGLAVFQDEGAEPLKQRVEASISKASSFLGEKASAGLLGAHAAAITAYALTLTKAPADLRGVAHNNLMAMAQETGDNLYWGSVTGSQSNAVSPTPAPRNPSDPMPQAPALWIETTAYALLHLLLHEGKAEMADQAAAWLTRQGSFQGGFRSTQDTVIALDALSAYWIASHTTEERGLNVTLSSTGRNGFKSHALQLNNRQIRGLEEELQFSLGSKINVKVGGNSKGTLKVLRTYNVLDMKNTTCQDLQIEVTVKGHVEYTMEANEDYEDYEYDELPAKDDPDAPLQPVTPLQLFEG

[2] = target: soluble human C3b (human) (UniProt P01024)

Substance	C4b Screen Ref Fold (fold vs CFI-HSA wild type) [1]	iC3b Screen Ref Fold (fold vs CFI-HSA wild type) [2]	C4b Screen Ref Fold (fold of CFI-HSA wild type) [1]	iC3b Screen Ref Fold (fold of CFI-HSA wild type) [2]	also measured
CFI-HSA Y408L; E457G; E461Q; R462K; N531G; ΔC-term (Δ558-PFISQYNV (SEQ ID NO: 14)-565) (enzyme)	1.67	0.24			
CFI-HSA Y408L; E457G; E530Y (enzyme)	2	1.12			
CFI-HSA Y408L; E457G; N531G; D425R; E530Y (enzyme)	4.1	1.08			
CFI-HSA Y408L; E457G; N531G; E530Y (enzyme)	4.16	2.07			
CFI-HSA Y408L; E457G; R462K; F464Y; N531G; GGSSGG (SEQ ID NO: 6); CR1 (ccp15-17) (from UniProt P17927) (enzyme)	2.74	0.02			
CFI-HSA Y408L; E530Y (enzyme)	0.33	1.93			
CFI-HSA Y408L; N531G; D425R; E530Y (enzyme)	2.99	2.08			
CFI-HSA Y408L; N531G; E530Y (enzyme)	2.25	2.11			
CFI-HSA Y408L; N531G; R557A (enzyme)	3.77	0.77			
CFI-HSA Y408L; N531G; ΔC-term (Δ558-PFISQYNV (SEQ ID NO: 14)-565) (enzyme)	1.85	0.3			
CFI-HSA Y553A (enzyme)	0.52	1.1			
CFI-HSA Y553E (enzyme)	0.51	0.38			
CFI-HSA Y553G (enzyme)	0.48	0.88			
CFI-HSA Y553H (enzyme)	1.56	1.11			
CFI-HSA Y553I (enzyme)	0.51	1.06			
CFI-HSA Y553K (enzyme)	1.49	1.12			
CFI-HSA Y553L (enzyme)	0.67	0.93			
CFI-HSA Y553N (enzyme)	0.6	0.63			
CFI-HSA Y553Q (enzyme)	0.77	1.09			
CFI-HSA Y553R (enzyme)	0.78	1.38			

Substance	C4b Screen Ref Fold (fold vs CFI-HSA wild type) [1]	iC3b Screen Ref Fold (fold vs CFI-HSA wild type) [2]	C4b Screen Ref Fold (fold of CFI-HSA wild type) [1]	iC3b Screen Ref Fold (fold of CFI-HSA wild type) [2]	also measured
CFI-HSA Y553S (enzyme)	0.76	0.93			
CFI-HSA Y553V (enzyme)	0.37	1.1			
CFI-HSA variant 420-DGNK (SEQ ID NO: 15)-424 --> GG (enzyme)	0.07	0.15			
CFI-HSA variant 514-MDANNVT (SEQ ID NO: 13)-520 --> NG (enzyme)	0.12	0.04			
CFI-HSA variant A328C; W468C (enzyme)	-0.06	0			
CFI-HSA variant A328C; W468C; K326Y; R327N (enzyme)	0.15	0.01			
CFI-HSA variant A361G (enzyme)	0.84	0.64			
CFI-HSA variant D425K; E457G; E461Q; N531G; R557A (enzyme)					C4b Screen Ref Fold (fold relative to CFI-HSA wild type) [1]: 2.8; iC3b Screen Ref Fold (fold relative to CFI-HSA wild type) [2]: 0.08
CFI-HSA variant D425R; Y408L; N531G; E457G; E461Q; R462K; F464Y; E416A (enzyme)			3.88	1.63	
CFI-HSA variant D506A (enzyme)	0.02	0			
CFI-HSA variant D506E (enzyme)	0.01	0			
CFI-HSA variant D506V (enzyme)	0.06	0			
CFI-HSA variant E38A; D425R (enzyme)	0.96	0.83			
CFI-HSA variant E457G; E461Q; R462K; F464Y; N531G; GGSSGG (SEQ ID NO: 6); CR1(ccp15-17) (from UniProt P17927) (enzyme)			5.42	-0.01	
CFI-HSA variant E457G; GGSSGG (SEQ ID NO: 6); CR1(ccp1-3) (from UniProt P17927) (enzyme)			1.73	-0.04	
CFI-HSA variant E457G; N531G; P535G; P558S (enzyme)			1.56	0.87	
CFI-HSA variant E457G; N531G; P535G; WT; GGSSGG (SEQ ID NO: 6); CR1(ccp15-17) (from UniProt P17927) (enzyme)			5.82	0.03	
CFI-HSA variant E457G; N531G; WT; GGSSGG (SEQ ID NO: 6); CR1(ccp15-17) (from UniProt P17927) (enzyme)			4.95	0.15	
CFI-HSA variant E457G; P535G; N422K (enzyme)			1.87	1.43	
CFI-HSA variant E457G; P535G; WT; GGSSGG (SEQ ID NO: 6); CR1(ccp15-17) (from UniProt P17927) (enzyme)			3.89	0.07	

Substance	C4b Screen Ref Fold (fold vs CFI-HSA wild type) [1]	iC3b Screen Ref Fold (fold vs CFI-HSA wild type) [2]	C4b Screen Ref Fold (fold of CFI-HSA wild type) [1]	iC3b Screen Ref Fold (fold of CFI-HSA wild type) [2]	also measured
CFI-HSA variant E457G; WT; GGSSGG (SEQ ID NO: 6); CR1(ccp15-17) (from UniProt P17927) (enzyme)			6.11	0.1	
CFI-HSA variant E487A; K14A (enzyme)			0.87	1.71	
CFI-HSA variant E530D (enzyme)	0.24	0.25			
CFI-HSA variant E530G (enzyme)	-0.02	0.12			
CFI-HSA variant E536A (enzyme)	0.57	0.76			
CFI-HSA variant F559L; V565I (enzyme)			0.77	1.59	
CFI-HSA variant F559L; V565I; P558S (enzyme)			0.43	0.49	
CFI-HSA variant F559L; V565T (enzyme)			0.28	0.54	
CFI-HSA variant F559L; Y563H; V565T (enzyme)			0.55	0.58	
CFI-HSA variant F559Y (enzyme)					C4b Screen Ref Fold (fold relative to CFI-HSA wild type) [1]: 0.66; iC3b Screen Ref Fold (fold relative to CFI-HSA wild type) [2]: 1.23
CFI-HSA variant G556P (enzyme)			0.65	0.39	
CFI-HSA variant G556P; P558G (enzyme)			1.86	0.68	
CFI-HSA variant H370A (enzyme)	0.37	0.57			
CFI-HSA variant I322V (enzyme)	0.38	0.39			
CFI-HSA variant I322V; V323I (enzyme)	0.31	0.39			
CFI-HSA variant I322V; V323I; R327P (enzyme)	0.38	0.36			
CFI-HSA variant K14A; D425R (enzyme)	0.64	0.99			
CFI-HSA variant K14E (enzyme)			1.35	1.74	
CFI-HSA variant K14E; E487K (enzyme)			0.7	1.43	
CFI-HSA variant K326A-R327A (enzyme)	0.2	0.37			
